Patent publication US20160237419

What was measured:
[1] = molecular target: human wild type trypsinogen-1 (PRSS1 wt)
[2] = molecular target: T1, supercharged variant of human trypsinogen-1 (PRSS1 sc)
T1 chain: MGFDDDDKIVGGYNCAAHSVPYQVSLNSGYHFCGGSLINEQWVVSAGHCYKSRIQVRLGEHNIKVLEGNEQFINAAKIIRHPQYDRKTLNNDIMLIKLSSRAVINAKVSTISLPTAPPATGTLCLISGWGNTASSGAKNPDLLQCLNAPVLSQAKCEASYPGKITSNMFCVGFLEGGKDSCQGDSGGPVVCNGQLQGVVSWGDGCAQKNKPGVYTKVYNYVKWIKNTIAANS

B1: human enteropeptidase light chain sc C112S (hEPI-sc-C112S) (protein)
chain: IVGGSDAKEGAWPWVVGLYYDDRLLCGASLVSSDWLVSAAHCVYGRNLEPSKWTAILGLHMKSNLTSPQTVPRLIDEIVINPHYNRRRKDNDIAMMHLEFKVNYTDYIQPISLPEENQVFPPGRNCSIAGWGTVVYQGTTADILQEADVPLLSNERCQQQMPEYNITENMICAGYEEGGIDSCQGDSGGPLMCQENNRWFLAGVTSFGYECALPNRPGVYARVSRFTEWIQSFLH
activation of trypsinogen by enteropeptidase (trypsin activity on CBZ-GPR-pNA; fluorescence of FRET peptide 7) [1]: Both PRSS1 versions can be activated to similar levels | activation of trypsinogen by enteropeptidase (trypsin activity on CBZ-GPR-pNA; fluorescence of FRET peptide 7) [2]: Both PRSS1 versions can be activated to similar levels, although PRSS1 sc shows a slightly slower activation profile
